From the domain aggregation screens of Martell et al. (2025)

assay: soluble fraction after stress (log2 fold change); higher = more stays soluble; pooled small domains, quantitative proteomics; conditions: stress: 75 degC
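Further: 20 min heating vs room temperature control held 20 min.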

Sequence	soluble fraction (log2)
HMFMSDDDIRILVKEWLQSQNRKSYQLAEEIGIRPQTFYAQMSVRKISANTKKALSRIIPGL	-0.769
HMFMSKTAMVAIISEADKYGLFNIPEGLSVEKTADEIFEGHIEVDFDKLKNELDFVYKNEALEKQFQEN	-0.852
HMFNPEQDPKQLTGRERAVADLIGLGANNAEIAIRLSMSERTVKAHLTSIFQQLNVRDRVQLALVMNQL	-0.493
HMFPASQPVPTDLNQIVRAGLEVFSGRLEGIDVRVSLEPELPRVNVDPEHFKRIVVNLVDNAAEAMQNS	0.183
HMFPATAPQLKAVHAILGKQGISDELDKLARVNEWLVGLNKEPVAAISELDKHTTSGLIDHLQGELNE	0.297
HMFPDLSPEQQRIVDVLTKSNDLQLNQLSVKTGIPIGDITSILFQMEMMGVVKPMAGGNYHLL	-1.68
HMFPDLTEDEQLIVDVLQRTGDLQINSLIVEANIPVNKMSEILFELEMKGVIRTLAGGVYQLL	-2.05
HMFPDRLRELRKGRNITLETLAEEMNKHLEPGQKPNTAAQIGNWERGDRSPSYIEVRKLADFFNVSMDFL	-0.586
HMFPELNAEETQVVQLLQKQTEGMQVNSLVVESNIPITRMSGILFELELKGIIRNYAGGVYKL	-3.2
HMFPELSEEAKVIVDALSKENDQQLNVLIANTGMAVGTMQAKLFELEMQGVVKPLAGSVYHLM	0.111
HMFPELTDDEQLIVSTLAKTNDMQINMLAVRTGIPVQRMSALLFSLEMKGVVKMYAGGTYHLL	-2.93
HMFPNQLLISRLSNQLSASERFAAVSSIAQLKNIDYDVLHVLVHTMNSDPNSNVRLAALEALSR	-0.459
HMFPQQGEIRQGVIASITPDQILVNVGTKSEGIISGKELEAISKSERDSLNVDQKIAVYILDPEDSNG	0.395
HMFQNPSQVVTTRVGELRAAIPTAQQGRITMGVAVVEDANSVRSVLISTSEPRGYLRPGVTLGPGETMV	0.0661
HMFQPFFENLRKASIPVSLREYLTFLEGMKKGLVTYDIEAFYFLARAAMVKDERNIDKFDRAFSATFKG	-0.306
HMFQTAADVAYRIISQKILDGEFPPGMKLSRRKMAEVTSVSVIPVIEALKKLEEDGLVESKPQWGSFVTI	-1.69
HMFQYEKIKDYILTGLEEGTWQAGDKIPSEAELVMSLNVSRMTVNRAVRELANSGLLVRIPGAGTFVATE	-0.643
HMFSIDRNIRRLRKEAGLTQEELAQKLFVTRQTISLWELGKVHPDLETLQKLAEQFQVDLLQVLYGPE	-2.33
HMFSLDMDRLVRPGFMASGNVTFSDGVTGKWALDQMGRLALETAQKGYQPSPADVQAFQRELQQQLQRQG	0.0415
HMFSPTKLKEKRESQGLSQSQLASSLGISRASYFNWESGKTKPNQNNLSKLSEILNVDPRYF	0.489
HMFSSVSVPAELSNQRFDKVVAELTPDLSRSKIKQLILLGKVLLNGEVTPPKQKVETGDEIEIFYTRQIE	-0.797
HMFTLDIGTIIRNRRLELNLTLEEIGNAVGVSKSTVQKWENGFISNMKRDKISALAKVLNINPVTLITGEY	-3.44
HMFTLNEIIGQKIRNARISAGLTLDELSKMTGISAAQLSSLETGYRRANIDTLYAIAKAIGIDVSNLLKY	-1.39
HMFTRFTVAQDGWTIGGFTAKEMAVSTAKQHAVDTGKPVTVVAHVAGGGSREAIFNSDGTNDKIWN	0.065

Sequence	soluble fraction (log2)
HMFTYEETIGKSADVYLTIPALKAGKGKIIISVRGSVHELDAMTNNAEKISTGAVVKIVRIEHGNILLVEN	-1.69
HMFVEKDSIINKGNNSYNFVITDNNNKVLVEYNGLLPDLFKEEQGVVIEGRLKSDFIIHAFTVF	-0.0707
HMFVGVDMAVKEEIGKEGVAFTDLRPAGKVSIGDDVYDAVSETGAFITRGTSVRVLKYQAGQVYVVK	-1.3
HMFVTFFHELKSAGVPVSLREYLTLMEAMDRDLASRRVEEFYYLARTALVKDERNLDKFDRVFGHVFKGL	-4.08
HMFWVESDVDFVDKTSAHNAIKENERVIGMYISYRLNGTWTTEQYVGIDTSKDNWENPDNWNIL	-1.42
HMFYLPEPLTEQELRILGMLLDGRSNPEIAAELFIAVGTAKWHVHNILQKLGVANRAQAIVKAHELGLT	-2.08
HMFYNELMNFIVYKDSQKIGKIVNINDKLPQPVFEVLINDKKFMVPIHDDFIEKIDKEKKSIHIVIPDGLL	-0.684
HMFYWTDLIGLDVINTADERLGKVVGLIETGANAVLRVMGDDQVERLLPFGSAVVLTVEKEAGQIRVEW	-2.11
HMGAARVTPLYNLRLREGPSTATARLDVVPRGTTLEVRAWDETGDWAQVEYRGQIGWIAAWLAEVEGEAP	-0.69
HMGADSFTGYTPIHKIDNPSDGINDGASYVVYFQKDGTDPTEFYKAVNANASTLAQLTSGTEYDLASSKKL	0.56
HMGAEIRDKVRAALAGLNPRAAEIFVMRYFDGYGNREIARLLNTSWSTIAVTLHRTRAKLQKELK	-0.0467
HMGAGDKQAQQASLMQIIALQKEGMALGLVEPKHLYHSFSKMIENAGFKDVQSFAVDPSTQQ	-0.0432
HMGAGEQMLPKVMFAEGDRVVHKVFGEGTVVTVDRPAQTYDIQFDKLRGTRRIMFRAELEGI	-0.693
HMGAGLDDLVRKSLHNAGLKADDNVVSWISGNLGSDRMVSRMELEKLVLFVAGQSEITLEDAQAVIGD	-0.524
HMGAGLKIGNDHEYANYLEYKVSVEKYAPGAILGEIKQKGIQFNTTISKTTFYRYITDGVFLTITNADLPV	0.374
HMGALTGQERRAEIMNILRQSTMPLSGAALGKQLGVSRQVVVQDIALLRQSGEEIYATNRGYVTG	-0.417
HMGAQPLIEPLSERELEVLALIAEGLTNAEIGRRLFIATGTVKRHVNTIYGKLDVHGRIEAIARARDLHLI	-1.25
HMGAQRDFELQLIDVIRQNPGLTYKAYGEKLSVSQATVKRLVAKLKETGSIRREGSQRKGTWIITDD	-1.49
HMGARWPIQDRPLTATEAAAVRRMYAGGLPHGRSKNSVITEVWGDLSNKPKRLDWLNQALEGGA	0.0155
HMGASGVEVPDVAGMSTAQAVSSLEQKGFVVNRTESYDAGVEKGNVISQSPEGGTKAPNGSAVTIRISQGA	0.831
HMGASIQITVNNTPVMLKNKTHYTLVDVLDFYPFDLSKMGGTELYTAINGVKSGFTDPVHANDSIEIYWI	-2.49
HMGASSLVGRSARVLQAVTDSDGRIKLAGETWSARLAAGATSTVGPGEEVRVIAIHGATAIVAPV	-0.581
HMGASVGEVESVKTASEIYTAAAGKIVAVNDAVAKDPSLVNSDPYGNGWLVKLEIADLSAINA	0.0161
HMGAVDIATARQLISEIGLPIMLKAEGGGGGRGIFAIHNEAELEDAFFKASTMAQASFGNPRLFVEKF	-0.441

Sequence	soluble fraction (log2)
HMGAVFEFIMEEEEPERIDKLLSSALPDLSRSYLQKLVKEGAVLVNKKEVKPNHKVNPGDVVEISVPEPE	0.448
HMGAVGISQKVTSLETAVLGKNFAKDPLIDRVARLEQTVLPKQAEANASLSLPERVSKLLEKVPIAAG	0.109
HMGAVPKNYFPAVEKGLQDSVQKGLLAGYPVVGVKAILYDGSYHPVDSSEMAFKTATIQAFKKGFMEA	0.187
HMGAYIPSYAPVDINAATHTVVRGDTVYNISKRYHVSQEDFRAWNGMADNTLSIGQVVKVKPAGYTAPK	-0.267
HMGDAVSRAYFALADDLLKGELTETVSEVLIRTRYELTSAQLQAVLHRIAQEGWAHKKPGYGWEFSAMLT	-2.01
HMGDEHYDTISAFIKSVRGSDPDAALYWLAKMILAGEDPRFILRRLIVLSGEDIGLADPQGI	-0.552
HMGDEPGAGYKWREDVLLRVMSEHGIDESARDDFVRHAVKFDDDDNLYLKKAEIIAAAEAWESSS	0.359
HMGDFLLQVDFPPALLEMLPEGKRQAAIGVLSHDPRPAYQRTPGRVYGLNFAGHNIRFAVSENLLTVLEV	-2.16
HMGDFLLTPHRGRSADFVIGNPPYIRLEDVPNDISDAYRAEYASMPGRADIHVGFYEKGLDL	-0.117
HMGDFVIVPDLIGKTIEEFDSELNELNLKYIISDSGNYNPDFKINSVLDQLPNANSKVKGGRKIYITLNAS	-1.05
HMGDGAWQQGEGGRWWYKYNNGTYPKDRVVTIGGKKYGFDSEGWMLSDTTKAFGGTTYSFAADGVATAQA	-0.0039
HMGDGYTYYYDDTVLALGFTKIGNDYYIFNTFSGKMYKDATMWVNDNPYGIKGGMHYFDASGKMFV	0.215
HMGDIFTAEDAKERIDYSGVDGIMLARGIFGNPWLIRDIREYLEYGKILHPVTQLDRVNMAIEHTRKT	0.169
HMGDIMLLFKENGKVYFLVGNQYTYVKNPTELSAIKTMMKQAGYDTHEHTNTTQVAYIKRLATE	-2.35
HMGDKVLIQTAQRLKKDLPFASIVSRFGGDEFLIFLPGISSTERVETIVKKTVFLFIAISTTLF	-0.28
HMGDLKSLIQATMDDAGISIKPDAMDYLISHLGSDRLTTRAELDKLILYAGADDKLDLDSVVELVG	0.00366
HMGDLLTVDRVAATSGLGVDTIRYYQRLGLLDPPVRHGRRALYSTAHLDRLVEIRQLADEGFSLAQIATL	-1.05
HMGDLVFDFVHGVHKAAEVEKELVMQALRFTHGNVSRAARLIGMQRSSLRYRIERYRLDAFVMEVAN	0.276
HMGDPSSERNIQKSIFILIGEKALSVQDISRSLGMPNDIIDKALISGVERNLWLSSDKGEYYL	-1.2
HMGDRRSVFEQSVLDAIKSLVKQGELATTKAISDHIGTNYQGNVSRAITALLADNKIKKLPKEGVLQPYEA	-0.0172
HMGDSFLDHKKELQSMILSRLDLSREVPDEEIKDIIDELIIAQSKKLFLSLNDRGKLRQELFYSIRK	-1.23
HMGDSVLNDKLNTLAGLDEERFKWVLASLNPNNSYSTHSDKMSALMWLVSYFNDEADLKETVPPLPI	-0.189
